Here are results for 1 molecule from patent publication US20220169732A1 (BIOND BIOLOGICS, published 2022).

The target of this experiment is T1, BSA conjugated CD28 stalk region dimeric peptide (also: dimer through the cysteine, BSA conjugated via C-terminal Lys by hydrazide chemistry).
T1 peptide: GKHLCPSPLFPGPSKPK
As to the kind of experiment: ELISA. Background: An ELISA detects its analyte on a solid surface through an enzyme-linked reagent.

Where no end group is shown, it is not given here.

B1: antibody M9 (antibody, V domains shown)
VH: DVKLVESGGGLVKLGGSLKLSCVASGFTFSSYYMSWVRQTPEKRLEWVATISDGGDNTYYAGTVTGRFTISRDFAKNTLYLQMNSLTSEDTAVYYCARIHWPYYFDSWGQGTTLTVSS
VL: QFVLSQSPAILSASPGEMLTMTCRASSSVSYMNWYQQKPGSSPKPWIYATSDLASGVPARFSGSGSGTSYSLTISRVEAEDAATYYCQQWSSHPPTFGGGTKLEIR
notes: Full-size mouse antibody raised in CD1 mice against the dimeric stalk peptide; detected with anti mouse IgG; also called clone M9; anti-cleavage antibody M9
For orientation: IC50 means the point on the concentration scale where inhibition reaches its midpoint. High values mean weaker potency, low ones greater potency. B1 registered a concentration for half-maximal inhibition (IC50) of 9 ng/mL.
